From US12729368B2, “Methods and compositions for generating oligodendrocyte progenitor cells” (Trailhead Biosystems Inc., priority 2022, dated 2026) come the findings set out here.

“And” between values parts separate entries of the source, which are not always exact repeats. Equal entries are not always repeated.

What all share (type): cell-based, human
Test [1] deals with OPCs. Kind of test: HD-DoE 8-factor model for stage 4 on OPCs. The conditions noted are these: optimized for maximal expression of CNP at 1339; positive. The method, then:
(§1) To engineer the recipe of stage 4 of differentiation, 48 or 96 different combinations of effectors generated using Design-of-Experiments compression through D-optimality were robotically prepared. The effector combinations were prepared in a basal media and were subsequently added to the cells, which were treated with the stage 1, stage 2 and stage 3 differentiation media as described in the earlier examples to generate OPCs. […] Solutions within the tested space could then be explored to address desirability.

The test system of test [2] is OPCs. Put plainly: HD-DoE 12-factor model for stage 4 on OPCs, 6 days in culture. The note with it: positive. The method, then: as §1, with “desirability. […] Benarroch (2009) Neurology 72:1779-1785; Shi et al. (2019) Exp Ther Med, 18:1258-1266).” for “desirability.”
Test [3] deals with stage 2 early-OPCs. Kind of test: HD-DoE 8-factor model for stage 3 (version 1) on stage 2 early-OPCs. The conditions noted are these: optimized for maximum expression of OLIG1 at 256; positive impact. As to the method: To further differentiate the cells to an oligodendrocyte progenitor identity, additional HD-DoE experiments were performed on the cells that were cultured in stage 1 and stage 2 differentiation media. After 3 days, gene expression of cells in different combinatorial conditions were investigated. At this time, we focused on maximal expression of signature oligodendrocyte progenitor genes such as SOX10, OLIG1 and PDGFRa (Goldman and Kuypers (2015) Development 142:3983-95; Marques et al. (2016) Science 352:1326-1329). In one 8-factor model, individual and combinatorial effects of LDN193189, SUN 11602, Activin A, Biotin, TTNPB, Isoproterenol, linoleic acid and T3+T4 were tested.
The same model was also optimized for maximum expression of PDGFRa at 3510.9. Two factor specifically, TTNPB and Linoleic acid determined the expression level of PDGFRa with factor contribution of 71.6 and 22.1, respectively (FIG. 17). […] The model was also optimized for highest expression of SOX10 at 18.8. In this optimization, TTNPB was the only input that could elevate the expression level of the selected gene (FIG. 18).
Dynamic profile analysis was utilized to explore combination sets that can optimize expression of all three selected genes. […]

In test [4] the test system is stage 2 early-OPCs. Put plainly: HD-DoE 12-factor model for stage 3 (version 1) on stage 2 early-OPCs. The conditions noted are these: positive. The method, then: In another model, the effects of Activin A and TTNPB along with LDN193189, MHY1485, PDGF-AA, AICAR, FGF2, CHIR99021, DBZ, MK2206, Purmorphamine and T3+T4 were tested on gene profile of differentiating cells. When this model was optimized for maximum expression of SOX10 at 54.7, we observed Activin A again had positive regulatory impact on its expression, with factor contribution of 4.7. Other positive factors included MK2206, with the highest factor contribution at 16.2, MHY1485 at 11.49, CHIR99021 at 9.6, DBZ at 9.3, FGF2 at 3.6 and PDGF-AA, with factor contribution less than 3 (FIG. 20).
In this model, we also investigated the conditions of expression of another important OPC gene, CSPG4 (Goldman and Kuypers (2015) Development 142:3983-95: van Tilborg et al. (2018) Glia 66:221-238).
Dynamic profile analysis was used to better assess the impact of the factors on our selected genes and find the combination set that can optimize their expression (FIG. 22). According to this analysis, even though Activin A has a positive effect on SOX10, it decreases level of PDGFRa and OLIG1. […]

B1: NT-3: TrkC agonist (protein, UniProt P20783 139-257, looked up)
Neurotrophin-3: YAEHKSHRGEYSVCDSESLWVTDKSSAIDIRGHQVTVLGEIKTGNSPVKQYFYETRCKEARPVKNGCRGIDDKHWNSQCKTSQTYVRALTSENNKLVGWRWIRIDTSCVCALSRKIGRT
Regarding B1, the factor contribution in the test on OPCs [1] is 24; in the test on OPCs [2] (optimized for CNP at 1790), 13 and 13.3; in the test on OPCs [2] (optimized for PLP1 at 3600) it was 7.

B2: Activin A: an activator of one of the receptors of TGF-b superfamily (protein, UniProt P08476 311-426, looked up)
Inhibin beta A chain: GLECDGKVNICCKKQFFVSFKDIGWNDWIIAPSGYHANYCEGECPSHIAGTSGSSLSFHSTVINHYRMRGHSPFANLKSCCVPTKLRPMSMLYYDDGQNIIKKDIQNMIVEECGCS
In the case of B2, the factor contribution with stage 2 early-OPCs [3] is reported as 50.2; with stage 2 early-OPCs [4] (optimized for maximum expression of CSPG4 at 38.6), 9.3; in the test with stage 2 early-OPCs [4] (optimized for maximum expression of SOX10 at 54.7) it was 4.7.
